B1: Histone-lysine N-methyltransferase SETD7 (Homo sapiens), Q8WTS6 (parent)
chain: MDSDDEMVEEAVEGHLDDDGLPHGFCTVTYSSTDRFEGNFVHGEKNGRGKFFFFDGSTLEGYYVDDALQGQGVYTYEDGGVLQGTYVDGELNGPAQEYDTDGRLIFKGQYKDNIRHGVCWIYYPDGGSLVGEVNEDGEMTGEKIAYVYPDERTALYGKFIDGEMIEGKLATLMSTEEGRPHFELMPGNSVYHFDKSTSSCISTNALLPDPYESERVYVAESLISSAGEGLFSKVAVGPNTVMSFYNGVRITHQEVDSRDWALNGNTLSLDEETVIDVPEPYNHVSKYCASLGHKANHSFTPNCIYDMFVHPRFGPIKCIRTLRAVEADEELTVAYGYDHSPPGKSGPEAPEWYQVELKAFQATQQK

Variants of: B1
Details: with sir1_human SIRT1, Q96EB6
Chain of sir1_human SIRT1, Q96EB6 (Q96EB6 whole entry): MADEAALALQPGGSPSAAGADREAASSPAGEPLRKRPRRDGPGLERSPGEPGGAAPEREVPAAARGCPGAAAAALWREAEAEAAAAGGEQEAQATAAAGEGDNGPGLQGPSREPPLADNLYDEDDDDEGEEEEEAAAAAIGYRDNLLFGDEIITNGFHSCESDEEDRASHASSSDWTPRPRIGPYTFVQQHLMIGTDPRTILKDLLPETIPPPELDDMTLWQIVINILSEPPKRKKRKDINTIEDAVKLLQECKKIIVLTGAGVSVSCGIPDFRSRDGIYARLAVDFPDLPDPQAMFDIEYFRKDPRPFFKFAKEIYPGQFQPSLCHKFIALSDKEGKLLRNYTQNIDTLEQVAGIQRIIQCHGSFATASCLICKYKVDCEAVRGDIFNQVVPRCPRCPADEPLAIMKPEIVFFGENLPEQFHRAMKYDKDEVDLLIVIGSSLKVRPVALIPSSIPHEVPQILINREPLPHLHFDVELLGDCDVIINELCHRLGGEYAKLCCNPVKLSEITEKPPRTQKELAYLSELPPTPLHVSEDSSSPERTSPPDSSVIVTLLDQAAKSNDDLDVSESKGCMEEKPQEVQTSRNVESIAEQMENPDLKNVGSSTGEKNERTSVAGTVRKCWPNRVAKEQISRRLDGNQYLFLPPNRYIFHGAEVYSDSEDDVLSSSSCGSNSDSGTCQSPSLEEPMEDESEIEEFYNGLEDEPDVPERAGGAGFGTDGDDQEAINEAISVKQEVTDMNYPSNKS

Variant	effect of a mutation on the interaction
MDSDDEMVEEAVEGHLDDDGLPHGFCTVTYSSTDRFEGNFVHGEKNGRGKFFFFDGSTLEGYYVDDALQGQGVYTYEDGGVLQGTYVDGELNGPAQEYDTDGRLIFKGQYKDNIRHGVCWIYYPDGGSLVGEVNEDGEMTGEKIAYVYPDERTALYGKFIDGEMIEGKLATLMSTEEGRPHFELMPGNSVYHFDKSTSSCISTNALLPDPYESERVYVAESLISSAGEGLFSKVAVGPNTVMSFYNGVRITHQEVDSRDWALNGNTLSLDEETVIDVPEPYNHVSKYCASLGHKANASFTPNCIYDMFVHPRFGPIKCIRTLRAVEADEELTVAYGYDHSPPGKSGPEAPEWYQVELKAFQATQQK [H297A]	decreasing interaction strength
